Assay results from publication PMC6362314, “Both a Unique Motif at the C Terminus and an N-Terminal HEAT Repeat Contribute to G-Quadruplex Binding and Origin Regulation by the Rif1 Protein” (Molecular and Cellular Biology, 2018).

B1: Rif1 C-terminal 272-aa polypeptide (aa 1129 to 1400), wild type (domain or fragment, S. pombe, UniProt Q96UP3 1129-1400, looked up)
chain: KIDETKNEATDMEESLTTPSGKVNKEVIVDDTSLRDEAIVPDKAIDVADNSNALLKENISSQSNRKADNNGTPSVNNSFTTANNDECSKENSQIEPEGQTASREGVLSTPRSTRKKRKLGRKSQSSNVNKEVAISEVSATLENVEVIERHGISEQGQNLDESACVLTNESSLSQTEIPEEKTENETTAVNGFENSKKRQFSSLLSGSIDTNNESNKVSSVEFDKSGPQDIIQSMTEATFEIEKNIQDLKSEEVQKLSDLLMRLQRAILSRIA
notes: Rif1, fission yeast (S. pombe), 1,400 amino acids; C-terminal polypeptides were also made in 293T cells (N-terminal His6, C-terminal Flag3); also called Rif1(aa1129-1400); C-terminal polypeptide; source: E. coli, purified (nickel column, Mono Q column if necessary)
B2: Rif1 C-terminal 148-aa polypeptide (aa 1253 to 1400) (domain or fragment, S. pombe, UniProt Q96UP3 1253-1400, looked up)
chain: SSNVNKEVAISEVSATLENVEVIERHGISEQGQNLDESACVLTNESSLSQTEIPEEKTENETTAVNGFENSKKRQFSSLLSGSIDTNNESNKVSSVEFDKSGPQDIIQSMTEATFEIEKNIQDLKSEEVQKLSDLLMRLQRAILSRIA
notes: Rif1, fission yeast (S. pombe), 1,400 amino acids; residues 1253-1400; source: E. coli, purified (nickel column, Mono Q column if necessary)
B3: Rif1 C-terminal 229-aa polypeptide (aa 1172 to 1400) (domain or fragment, S. pombe, UniProt Q96UP3 1172-1400, looked up)
chain: AIDVADNSNALLKENISSQSNRKADNNGTPSVNNSFTTANNDECSKENSQIEPEGQTASREGVLSTPRSTRKKRKLGRKSQSSNVNKEVAISEVSATLENVEVIERHGISEQGQNLDESACVLTNESSLSQTEIPEEKTENETTAVNGFENSKKRQFSSLLSGSIDTNNESNKVSSVEFDKSGPQDIIQSMTEATFEIEKNIQDLKSEEVQKLSDLLMRLQRAILSRIA
notes: Rif1, fission yeast (S. pombe), 1,400 amino acids; residues 1172-1400; source: E. coli, purified (nickel column, Mono Q column if necessary)
B4: Rif1 C-terminal 91-aa polypeptide (aa 1310 to 1400) (domain or fragment, S. pombe, UniProt Q96UP3 1310-1400, looked up)
chain: TENETTAVNGFENSKKRQFSSLLSGSIDTNNESNKVSSVEFDKSGPQDIIQSMTEATFEIEKNIQDLKSEEVQKLSDLLMRLQRAILSRIA
notes: Rif1, fission yeast (S. pombe), 1,400 amino acids; residues 1310-1400; also called C-terminal 91 amino acids; source: E. coli, purified (nickel column, Mono Q column if necessary)

Target: the molecule itself
Assay: native gel or EMSA; purified Rif1 C-terminal polypeptides on a native protein gel (5% to 20% gradient gel), CBB staining; self-association

Stoichiometry N, ≤ 16 subunits:
B1, B2, B3, B4
